We go through 18 sequences from the DeepSol protein solubility set.

The nature of the series: soluble on expression in E. coli; label from the status in PepcDB or PDB records.
Take “MGHHHHHHSHEMLPEIGEEKVAIIAPSPSDHPQFKEILQHYVEQGKEVSPSSVRADTLDEELADLLKKAGVKTLTIAPETASDKLQEVINKGIGDEEVMRAAELASTRFEKVKLYYMVGLPGESFEDVKAILEQALRVKKLVGKVEISVNPLVPKPHTPLQWMGFGGEEELREGISHLKKKLEYLRREARRAGIGADVSGFKEFAIQTILSRGDREVAEML”: the “soluble on expression in E. coli” value is given as “soluble”. Regarding “MAHHHHHHMEPYASPAAVPPPHVVYDALSKAQKAAPQLRPIPAFEVYKVAREEELAAYRMLCRVLFMHHGTPLPKAQQRILDDMGEDLCIGQTRQGLEKEMAEQDKVLQGIRKSGVLRRRGDFTDGVEEMTVEDYLAEAPKDDGNGLFMPTSKVRRVDGADSGATRATVIAAAAGLGAKRKGNVHAAVSKLAKEAETAGKSLLYASSAQEEQQLIQVLQQKRELLVALREELTEA”, the “soluble on expression in E. coli” value is reported as “not soluble”. In the case of “GPGSMLRVSLACRVTAARSAAPHTTSSSSSLVESVTSVFRSSRYLRHAPPRLYVTCSHDQGIPLHGCGRHMTTVLDVSREASPNAPPHTQSIYLLTSTSISDVEFKDSAAQSQVLVGLPQVQSIDAIHRFCDTYAATLSRVHHILLPGGVSPLQSSLIKQLLEHIPQARLVCNGFGHALLTNATFHDGVQRAVLENEPDAPPELLRFAALPADRVSSMADGDTVAVDVAKSEAESSAPVAARALRVVAVKSKGQQQRRREHSQTHHPAHFTNEALFYYDDVFNALFVGHTLHRLPWLPTVLTEASRELFLPMPPPLATQRPLSRPSPLLDTWRVLESCEDVVEALRRTPELERVLAGSYGELCGNVEDCIAGLESSSDALERLRSRLARRLTTDTSRDVHRWSTALLKRIVHEVVCTQKASEPTSSEVQEAFLCWARTDGEWGRLSTCLAHAAMVLPPSTETGEADGASSSAADSFAAHDSVPAAGATAAGESAAPEALQGTHGVELLVAVFNRKGLQGLIRTVQRETIDVQVFLAMSEEDLKKVFKATFGITKRLMLLQDELRKNL” it was “not soluble”; in that of “MGSDKIHHHHHHMKKRLLLNTDDYGWDLDANAAIIDLLQSDSIHNVTLLANYCDSDVLRAISPFQDRASLGIHVCLNSGQALSGSTRSTLHDACGNFYDSKTLFQRAFFGELNYSDVLLEIKSQYYYLSDHGIDITHADSHQHIHQYPFLSGMITQALHEIGVKNIRRCRPLEVKNIRRYLIYFFYQCTKNNLNKFNSPDVLVTDFTHSGFSFSTDVQPILKKLSLSHYSTIEWMCHPAREDKAGSYLQRKKEYDFLKKCDWDILLNGTGIERSQYRYI”, “not soluble”. For “MRGSHSGAQGLLAAQKARGLFKDFFPETGTKIELPELFDRGTASFPQTIYCGFDPTADSLHVGHLLALLGLFHLQRAGHNVIALVGGATARLGDPSGRTKEREALETERVRANARALRLGLEALAANHQQLFTDGRSWGSFTVLDNSAWYQKQHLVDFLAAVGGHFRMGTLLSRQSVQLRLKSPEGMSLAEFFYQVLQAYDFYYLFQRYGCRVQLGGSDQLGNIMSGYEFINKLTGEDVFGITVPLITSTTGAKLGKSAGNAVWLNRDKTSPFELYQFFVRQPDDSVERYLKLFTFLPLPEIDHIMQLHVKEPERRGPQKRLAAEVTKLVHGREGLDSAKRCTQALYHRSHHHHHH” the value was “soluble”; for “MEKRKHFTPEQKAKIVIEVIKGERTLNEIAAEYGIHPNLLSRWKTEFISNAGRVFSKETDEVEKVKQSYEKEKDELLKQIGQLSYEVAWLKKKSGLL”, “not soluble”. For “MGSDKIHHHHHHMMFVHIADNHLGYRQYNLDDREKDIYDSFKLCIKKILEIKPDVVLHSGDLFNDLRPPVKALRIAMQAFKKLHENNIKVYIVAGNHEMPRRLGEESPLALLKDYVKILDGKDVINVNGEEIFICGTYYHKKSKREEMLDKLKNFESEAKNYKKKILMLHQGINPYIPLDYELEHFDLPKFSYYALGHIHKRILERFNDGILAYSGSTEIIYRNEYEDYKKEGKGFYLVDFSGNDLDISDIEKIDIECREFVEVNIKDKKSFNEAVNKIERCKNKPVVFGKIKREFKPWFDTLKDKILINKAIIVDDEFIDMPDNVDIESLNIKELLVDYANRQGIDGDLVLSLYKALLNNENWKELLDEYYNTKFRG” the value was “not soluble”; for “MDEKKCWLVVCVQSNREKKTYERLSALGFESFLPLQEETRRWSDRSKKVQRVVIPMVVFARIAPSERISVLRLPSVSRFMVLRGESAPAIIPDAQMERFRFMLDYSEEAVEMCSERIQPGEQVKVIKGPLTGLTGELITMDGKSKVAVRINMLGAAMVEVPVGFVERI”, “not soluble”; for “MYPNLFQPLDLGFTQLKNRVLMGSMHTGLEENKEGLHKLAAFYEERAKGGVGLIVTGGFSPNLRGRLHPFSAEFSKTKHAKAHKVVTEAVHRHGAKIALQLLHAGRYAMHPFSQSASAIRAPIAKFAPSEMSTRQIRNTIQDFANSAELAQLAGYDGVEVMGSEGYLINQFICKRTNMRYDEWGGSYQNRIRFPVEIVKAIREAVGKEFIIIFRLSMLDLVEQGSTFEEVVVLAKALEEAGVTIINTGIGWHEARIPTIATQVPRAAFSWVTEKIKPYLKVPVVTCNRINTPEQAEKILASGQADMVSMARPFLADADFVRKAQEGQSALINTCIGCNQACLDNVFRGKRASCLVNPRACYETEIVVKPAQSKKIAVVGAGPAGLAFATTASERGHQVDLFERNDRIGGQFRLAMQIPGKEEFRETIRYFANRIDQTGVKLHLGCEVQFSDLRGYDEVVIATGVTPRKIALAGLSESSKVVDYQTLIREKTPVGQKVAIVGAGGIGVDVASMLTEPKDQTLDDWLYEWGIDKAIEHPGGLYPYPETTSEREVWLLQRRKGAVGKGPGKTTGWIHKRTLEKRGVHLVGGVQYQKIDEQGLHIERDGKSELIDADSVVICAGQESVRPFEAQWAELGDKLHVIGGADVAGELDAARAIRQGVELAVRL”, “not soluble”.

As for “MGSDKIHHHHHHMADLTDLERTRHLVDLLAPARKTRIVDIGANPINDNPYAPLLDIGAAEVWGFEPQTEAFDKLVARNAPDEHYVNAAVGKGGTGTLNICASSGTSSLLTPNVDAMDAVTGWHKYFEVVGTVDVETKRLDNIAEIPEFDLLKIDVQGAEREVFTYGKKRLSTALAVITEVAAIPLYEDQPLLGDQMVLLGKLGFDLHKFLFWKDVVLRSKYLNGMRRRRMRTQLVDGDAVFVRDLLHLKDMETERLKHLTLLADAVFESFDMVLYCLEILEDRGVLTEAAIRTYVARMPYQRDPQPRLVESVGQ”, the “soluble on expression in E. coli” value is given as “not soluble”. For “MKIDISDILKHSGASLRLDFSESIKINDFIAEDFDFAKPVTFKGTLVNAGGIIKLDGELWADYRAKCSRCLKDIESKMHIDVKENFVEEGSNKTDEEYYTYHGKFLELEKVMIDNIILNLPAKQVCDEACKGYCPKCGADLNNDECKCVNEDIDPRLEVFKNFFTDN” the value was “soluble”; for “MKKKLLAGAITLLSVATLAACSKGSEGADLISMKGDVITEHQFYEQVKSNPSAQQVLLNMTIQKVFEKQYGSELDDKEVDDTIAEEKKQYGENYQRVLSQAGMTLETRKAQIRTSKLVELAVKKVAEAELTDEAYKKAFDEYTPDVTAQIIRLNNEDKAKEVLEKAKAEGADFAQLAKDNSTDEKTKENGGEITFDSASTEVPEQVKKAAFALDVDGVSDVITATGTQAYSSQYYIVKLTKKTEKSSNIDDYKEKLKTVILTQKQNDSTFVQSIIGKELQAANIKVKDQAFQNIFTQYIGGGDSSSSSSTSNE”, “soluble”; for “MGSDKIHHHHHHMFSYEVIRQFTETEHHLYRYIMDNRDKVMFMRVRELSEVTHVSPASIVRFTRKLGCEGFSEFKVKLKQEATREVKKKTADTVEVLEEFFERTMNRDYDHVLDAAAEIINEADLVVFFGIGTSGILAEYGSRFFSNMKKRTFYIKDPFYPNPGEQFKNKAVMIILSVSGETDQVLEQAQNMQQYGSRIISITNTSHNTLAGLSDVNIPYYVTQEMVDKTNITTQIPVLFLLEAMAKKNYNQEQEE”, “not soluble”. In the case of “MGSDKIHHHHHHMIRINMFSQADSVAGQGVGAAYLELIRLLRTHLVDDFYVTINKYGRSDLTHYHTINPTYFANSFSPARGRKIGYVHFLPDTLERSIKLPGVAKKVFYQYVIDFYKRMDQIVVVNPIFIDKLTEYGLDRNKIRYIPNFVAKSEFYEQTQAKKNATRQELGIPQDKFVVFGDGQVQARKGVDDFAKLAEANPDYQFIWAGGFSFGKITDGYDHFKQLVENPPKNLTFTGIIDREKLVDYLNMADLFLLPSFDELFPMSVLEAFSCGTPVLLRDLDLYRAIIDGYYLAGKDSAEMNEQLRFAATHPEVLARQQELSRKASQQYSEDHLAEIWRDFYQEQYQLGRELGQISYE” it was “not soluble”; in that of “MGSDKIHHHHHHMKLLILGNHTCGNRGDSAIMRGLLDAIRQQAPEAEMDVMSRFPVSSAWLQGRPIIADPLYQLSQKQQAAAGLNGRVKKVLRRRFQHKILLSKVAQEGSLRNFAIAPEFAEFAQFIAQYDAVIQVGGSNYVDLYGLTHFEYPLCAFMANKPIYMVGHSVGPFQNPDFNQLANYVFGRTSALILRETVSRDLMTAAQIDTRKVEQGVDTAWLVERRHDEFVASYAVQHWLDVTARRKTVAITLRDLEPFDKRLGTTQQAYEQAFAQVVNRLIADGYQVLALSTCTSIDRYNRDDRMVALRMAKYVNDSENFHIAMDELNDVEIGKILASCVLTIGTRLHSAIISMNFGTPAIAINYEHKSAGIMQQLGLAELAIDIRHLLNGSLQSVVADTLNQLPALKAKVANAVTEERAKGFTMIKSVLDRIREAQ”, “not soluble”. In the case of “MAESVEKLEDGIVRSAEQVSSQIRAAKDAIASVIFGQDRVIENTLVTILSGGHALLIGVPGLAKTKLVETLGVTLGLDAKRIQFTPDLMPSDILGAEVLDESTAGKRSFRFIAGPVFAQLLMADEINRASPRTQSALLQAMQEQHITVAGARHDLPKPFHVLATQNPLEQEGTYPLPEAQLDRFLMEIDVDYPDRDAERRILFETTGAEETLAKGSMTADALITAQRLIRRLPVGDSVVEAILSLVRSARPGPDSGETGKFIAWGPGPRASQSLMLAVRARALIDGRLAPSVDDVLDLAEPILKHRMALTFQARAEGRTIPDVIRQLKTRIGLEHHHHHH” it was “soluble”; in that of “MGSDKIHHHHHHMLDPAGARVQIAKGRRDAADEPEDEDQMTRLEAFGDRKFPAAELILSSEGRGWDGIGTQVRRHPAGEIPVPVPDQMEVTLAIAGSQTGRVERRSGSAFQNTTARPGTLWFCPIGVTEDSIRITETLPMVQHVFLAKSQFDSLSELSSRSLSPASIAYLADVNDELVRQICQRIYREAQEETSSGKILIDCLAQSLVAHLVSDYSHDSRIHLGPDSGPSKLDDARLRRVLDYIYGNIDQDLSLSKLSEVACLSKHHFARAFREATGTPPYRFISERRLDHALNLLKDSRLSLAEIAYICRFSSQATFTRAFRRHVGTSPGEYRHLSRT”, “not soluble”; in that of “MFLTWENLFLTNQSRRRLKLLVVERSYNNVGNFLKEYFGGFFEIVNFDDLRLTMVDMVSLSSEYDVIVTDMILEQTTDSEILFFNQMAPSVVANRLTDM”, “not soluble”.
